Reference: paper PMC2921846

Biological target: PKCα-YFP (mouse) (UniProt P20444)
Assay: FRET or BRET

FRET efficiency: 7.19%
Substance: Erk-CFP (from UniProt P63085 1-358) (natural protein)
